The values that follow come from publication PMC10120048.

The assay has as its target Cytochrome bX. The assay can be described thus: native MS; 5 µM purified CytbX in 0.2 M ammonium acetate pH 8.0 with lauryldimethylamine oxide at 2x critical micelle concentration; Q-Exactive UHMR; dimer of the protein with itself.

The substance Cytochrome bX showed a stoichiometry N of 2.

By stoichiometry N is commonly meant a count of units in the complex or per binding partner.
